Data on 41 sequences can be found in the nanobody polyreactivity screen of Harvey et al. (2022).

The nature of the series: yeast display, Sf9 membrane polyspecificity reagent, FACS + sequencing; frameworks hold sequencing errors. In outline: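 Synthetic nanobody libraries on Saccharomyces cerevisiae BJ5465 were galactose-induced for 36–48 hours, stained 1 hour at 4 °C with 10% biotinylated, detergent-solubilized Sf9 membrane reagent and enriched on streptavidin microbeads. FACS then separated cells into low and high (top ~1%) gates by anti-HA (expression) and streptavidin (reagent binding) fluorescence. Genes were colony-PCR amplified, MiSeq 2 × 250 sequenced and CDR-length filtered. A clone's polyreactivity label is that of its gate of origin.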
With “QVQLQESDGGLVQAGGSLRLTCAASGSISPQYYMGWYRQAPGQEREFVAISKGTTTYYADSVKGRLTISRVNAKNTVYLQMNSLKPEDTAVYCCAAGRWLQKVHAYWDQGTQVTVSS”, the “polyreactivity (PSR sort gate)” value is listed as “low polyreactivity”.
For the sequence “QVQLQESGACLVLAGGSLRMSCASSGYIFDTCPMGGYRQAPGKEREFVASIDHGSNTYYADSVKGRFTISRDSAKNTVYLQLNSLKPEDTAVYYCAVRDDGSYTYGNWGQGTQVSVSS”, the “polyreactivity (PSR sort gate)” value is “high polyreactivity”.
“QVQLQESGAGLDQAGGSLRLSCAPSGYISDIGTMGWYRQAPGKEREFVATIVVGSTTNYADSVKGRFTISRDNAKNTVYLQPESGRYRGVVLRGWLLAVGKFTYWGQGTQETVSS”: the “polyreactivity (PSR sort gate)” value is listed as “low polyreactivity”.
The result for “QVQLQESGAGLEQAGGSLRMSCAASGYISDIVTMGWYRQAPGKEREFVATIVVGSTTNYADSVKGRFTISRDNANNSVYLQPESGRYRGVLLRGWLLAVGKFTYWGQGTQETVSS” reads “low polyreactivity”; that for “QVQLQESGCGLVQAGGSLRLSCAASGDIIEADDMGWYRQAPGKERELVASITDGGSTNCADSMKGRSTICRDNAKITVYLQMNSLKLEDTAVYYCAAIAYPDVPTYFDYDSDYFYWGQGTLVTVSS”, “high polyreactivity”; that for “QVQLQESGCGLVQAGGSLRLSCAASGSISAVGAMGWYRQAPGKEREFAASVNWGTNTNYADSVKGRFTISRDNAKNTLYLLMNSLTPEDTAVYYCAVLPDWETRHDYWGHGTQVTVSS”, “low polyreactivity”.
Then “QVQLQESGDGLVQAVGSLRLSCAASGYISGYYYMGWYRQAPGKERELVAGIDAFGSSTNYADCVKGRFTISRDNAKNTVYLQMNSLKPEDTAVYYCAARPDGYRLFSYWGQGTQVTVSS”, with “low polyreactivity”; and “QVQLQESGGCLVQAGGSQRLSCAASGYIFYFQYMGWYRQAQGKEREFVAAISDGANTNYADSVKGRFTISRDNAKNTEYLKMNSLKPEDTAVYYCAVYADENYYYIYWGQGTQVTVSS”, with “low polyreactivity”; and “QVQLQESGGGLAQAGGSLRLSCAASGTIFPADSMGWYRQAPGKERELVAGITTGANTYYADSVKGRFTISHDNAKNTVYLQMDSLIPEDIALYYCAAPGSSTYDLEYWGQGTQVTVSS”, with “high polyreactivity”.
For “QVQLQESGGGLAQAGGSLRLTCAASGTIFPADSMGWYRQAPGKERELVAGITSGANTYYADSVKGRFTISHDNAKNTVYLQMDSLIPEDIAVYYCGAPGSSTYDLEYWGQGTQVTVSS”, the “polyreactivity (PSR sort gate)” value is given as “high polyreactivity”.
The result for “QVQLQESGGGLEQAGGSLRLSCAASGYISEIGTMGWYRQAPGKEREFVATIVVGSTTNYADSVKGRFTISRDNAKNTVYLQPESGRYRGVLLRGWLLAVGKFNYWGQGTQETVSS” reads “low polyreactivity”; that for “QVQLQESGGGLEQAGVSLRLSCAASGYISDIGTMGWYRQAPGKEREFVATIVVGSTTNYADSVKGRFTISRDNAKNTVYLQPESGRYRGVLLRGWLLAVGIFTYWGQGTQETVSS”, “low polyreactivity”; that for “QVQLQESGGGLLQAGGSLRLSCAASGTISTDSYMGWYRQAPGKERKFVATIGYGGITYYADSVKGRSTISRDSAKNTVYLQMNSLKPEDTEVYYCAVNSYYPDHYWYWGRGTQVTVSS”, “high polyreactivity”.
With “QVQLQESGGGLVHAGGILRLSCAASGTISFINMKGWYGQAPGRERELVASINFGANTHYADSVKGRFTIRRDNAKNTVYLQMNSLKPEDTAVSYCAARKVRFGVDYWGQGTQVTVSS”, the “polyreactivity (PSR sort gate)” value is reported as “high polyreactivity”.
The result for “QVQLQESGGGLVKAGGSLRLSCAASGNISPSDAMGWYRQAPGEERDLVASNAYSAITYYADGVKGRYTISRDNAKNTVYLQMNSLKPEDTEVYYCAVYQFTYPVFPAYWGQGTQVTVSS” reads “low polyreactivity”; that for “QVQLQESGGGLVLAGGSLRLSCAASGSITAQAYMGWDRQAPGKEREHVAGINYGDNTNYADSVKGRFTISRDNEHRVSADEQPETGRYRGVLLRGFLEIFYYYIFWGQGTQVTVSS”, “high polyreactivity”.
Then “QVQLQESGGGLVLAGGSLRLSCSASGNISVYGSMGWYRQAPGKVREFVATIDPGTNTNYADSVKDRFTISRDNAKNTVYLQMNSLKPEDTAVYYCAVEAGSDWPYRYWGQGTQVTVSS”, with “low polyreactivity”; and “QVQLQESGGGLVLAGGSMRLSCAASGSISAHAYMGWERQAPGKEREHVAGINYGDNTNYADSVKGRFTISRDNEHRVSADEQPETGRYRGVLLRGFLELFYYYIYWGQGTQVTVSS”, with “high polyreactivity”.
On to “QVQLQESGGGLVQACGSLRLSCAASGYIFSHQYMGWYRQAPGKERELVASISPGATTNYADCVKGRFTISRDNAKNTVYLQMNSLKPEDTAVYYYAVYQILDRRLSYWGQGTQVTVSC”, for which the “polyreactivity (PSR sort gate)” value is on record as “high polyreactivity”.
On to “QVQLQESGGGLVQACGSLRLSCAASGYIFSHQYMGWYRQAPGKERELVASISPGATTNYADSVKGRFTISRDNAKNTVFLQMNSLKPEDTAVYYYAVYQMLDRRLSYWGQGTQVTVSC”, for which the “polyreactivity (PSR sort gate)” value is “high polyreactivity”.
The result for “QVQLQESGGGLVQACGSQRLSCAASGSISEGQDMGWYRRAPGKESEFVAGIAPCATTYYADSVKGRFTISRDNAKNSVYLQMNSLKPEDTAVYYCAARSVTETDHDYWGQCTQVTVSS” reads “low polyreactivity”; that for “QVQLQESGGGLVQADGSLRLSCAASGSIFGYYYMGWYRQAPGKDRELVATINICGITNYADSVKGRFTISRDNAKNTVYLQMNSLKPDDTAVYYCAADEYAQRDLGYWGQGTQVTVSR”, “low polyreactivity”; that for “QVQLQESGGGLVQAGDSQRLSCAASGNIFRFTDMGWYRQAPGKERELVAAINAGSTTYYADSVKGRFTISRDNAKNTVYLQMNSLKPEDTAVYYCAVYYLGSGTFGYWGQGAQVTVSS”, “high polyreactivity”.
Turning to “QVQLQESGGGLVQAGGCLRLSCAASGTIFDPDYMGWYHQAPGKERELVASISLGRITYYADSVKGRFTINRDNAKNTVYLQMNSLKPEDTAVYYCAVRVETIYYYSYWGQGTQVTVSS”, the “polyreactivity (PSR sort gate)” value is listed as “high polyreactivity”.
Take “QVQLQESGGGLVQAGGDLRLSCAASGTIFRDYIMGWYRQAPGKEREFVAGIDRGANTNYADSVKGRFTISRDNAKNTVYLQMNSLKPEDTAVYYCAADWWRVDMDYWGQGTQVTVSS”: the “polyreactivity (PSR sort gate)” value is on record as “low polyreactivity”.
Regarding “QVQLQESGGGLVQAGGGLRLSCAESGTISGPHVMRWYRQATGKEREFVAAINVGAYTYYADNVKGRFTISRDNEKNTVYLQMNSLKPEDTAFYYCAAFARYSRRYYYWGQGTQVTVSS”, the “polyreactivity (PSR sort gate)” value is “low polyreactivity”.
Then “QVQLQESGGGLVQAGGILRLSCAACGNIFPSAVMGWYRQALGKEREFVATINSGSNTYYADSVNGRFSISRDNAKHTVYLHRNSLKLQDTAVYYCAAYFKLPAWHTSWGQGTQVSVSS”, with “low polyreactivity”; and “QVQLQESGGGLVQAGGSLCLSCAASGTIFFDGDMGWYRQAPGKEREFVAAINPGGSAYYADSVKGRLPLAAITHSVYLQMNSLKPEDTAVYYCAAKLFDVYGYYYWGQGTHVTVSS”, with “low polyreactivity”; and “QVQLQESGGGLVQAGGSLCLSCAASGTNFFDGHMGWYRQAPGKEREFVAAINPGGSAYYADSLKGRLPLAAITHTVYLQMNSLKPEDTAVYYCAAILFDVYGYYYWGQGTHVTVSS”, with “low polyreactivity”.
The result for “QVQLQESGGGLVQAGGSLLSCAASGTISYYREMGSYRQAPGKERELVAGIGVGTITYYADSVKGRFTISRDNAKKTVFLQMNSLNPEDTAVYFCGDHIDGNDSHAYWGQGTQVTVSS” reads “low polyreactivity”; that for “QVQLQESGGGLVQAGGSLRLICAASCTISQEDWMGWYRQAPGKEREFVAAIGLGSNTNYADSLKGRFTISRDNAKITVYLQMNSLKPEDTAVYYCNNDSTNNPFQYDYWGQGTQVTVSS”, “low polyreactivity”; that for “QVQLQESGGGLVQAGGSLRLRCAASRNISGSSDLGWYHQAPGKEREFVASMTSGGTTYYADSVKGRFTISRDNAKISEYLQMNSLKPEDTAVYYCAVGDPADAEFGYWGQGTQVTVRS”, “low polyreactivity”.
For “QVQLQESGGGLVQAGGSLRLSCAAIGTIFASQHMGWYRQAPGKERELVASIAKGGNTYYADSVKGRFTISRGNAKNTEYLQMNSLKPEDTAVYYCAAEIDLPYYYGSADDDYWGQGTQVTVSS”, the “polyreactivity (PSR sort gate)” value was “high polyreactivity”.
Then “QVQLQESGGGLVQAGGSLRLSCAASCTISQEDWIGWYRQAPGKEREFVAAIGLGSNTNYADSLKGRFTISRDNAKNTVYLQMNSLKPEDTAVYYCAVSVWQYSDHVYRGQGTQVTVSS”, with “low polyreactivity”.
Then “QVQLQESGGGLVQAGGSLRLSCAASGDILEADDMGWYRQAPGKERELVASITDGGSTNCADSMKGRSTICRDNAKITVYVQMNRLKLEDTAVYYCAGIAYPDVPTYFDYDSDYFYWGQGTLVTVSS”, with “high polyreactivity”.
In the case of “QVQLQESGGGLVQAGGSLRLSCAASGIIFDNPNMGWYRQAPGKQRELVATINSGATTNYADSVKGRFTISRDNAKNTVYLLMNSLIPEDTAVYYCAVDLSPTYFYYWGQGTQVTVSS”, the “polyreactivity (PSR sort gate)” value was “high polyreactivity”.
The result for “QVQLQESGGGLVQAGGSLRLSCAASGNIFEADIMGWYHQAHGKERELVASITDGGSTNYADSVKGRFNIKRDNAKNIVYLQMNSLKPEDTAVYYCAAIAYPDIATYFDYDSDYFYWGQGTQVTVSS” reads “high polyreactivity”; that for “QVQLQESGGGLVQAGGSLRLSCAASGNIFLGDTMGWYRQAPGKEREFVAGIARGGNPYYADSVKGRFTISRNNANNTVYLQKNSLKPEDTAVHYCAVQRSHASDYNYWGQGTQVTVSS”, “low polyreactivity”; that for “QVQLQESGGGLVQAGGSLRLSCAASGNISVTGFMGWYRQAPGKERELVASIGIGATTYYADSVKGRFSISRDNAKNTVYLQMNSLKPEDTAVYYCAARYLYYAYSYWGQGTQVTVSS”, “low polyreactivity”.
Then “QVQLQESGGGLVQAGGSLRLSCAASGNISVTGFMGWYRQAPGKERELVASIGIGGTTYYADSVKGRFSISRDNAKNTVYLKMNSLKQEDTSVYYCAARYLYYAYSYWGQGTQVTVSS”, with “low polyreactivity”; and “QVQLQESGGGLVQAGGSLRLSCAASGNISVTGFMGWYRQATGKERELVASIGIGGTTYYADSVKGRFSISRDNAKNTVYLQMNSLKPEDTAVYYCAARYLYYAYSYWGQGTQVTVSS”, with “low polyreactivity”.
